Data: the DeepSol protein solubility set

Test: soluble on expression in E. coli; label from the status in PepcDB or PDB records

Row | Sequence | soluble on expression in E. coli
1 | MVLMIVSGRSGSGKSVALRALEDMGFYCVDNLPVVLLPDLARTLADRQISAAVSIDVRNMPESPEIFEQAMNNLPGAFSPQLLFLDADRNTLIRRYSDTRRLHPLSSKNLSLESAIDKESDLLEPLRSRADLIVDTSEMSVHELAEMLRTRLLGKRERELTMVFESFGFKHGIPIDADYVFDVRFLPNPHWDPKLRPMTGLDKPVAAFLDRHTEVHNFIYQTRSYLELWLPMLETNNRSYLTVAIGCTGGKHRSVYIAEQLADYFRSRGKNVQSRHRTLEKRKT | not soluble
2 | MVNSTTLAHLNTNIDHLTTVLSSYAGRDKAIRSLAFYLQLKSTTSPDNAKEILGLAKQLSAARLVSRQFNHPGMLKSCRQIMQAFQTGRIGDPLEFLTGAAVTGIYTVYGFVELLAWLSDAKILAFNSARLYKWCLYLWLSELINGIVRQMRVIYRKGIEKSQEDILTLVGLSSDFISGVNSLPHKILWAGKLSMRQSASFSLLASIIGFYKLW | not soluble
3 | MGSDKIHHHHHHMLKCSICINDERITRILIVDGRPICKECKVFLEHPPDKEKIKKELEEILSKVDKAIVAYSGGKDSIVALYLAKEKYSIDVEAVMVDHGFIAPQAIKNAKNVAKYLDVPLTIIKRDYSDIFREALLKAKSPCRKCSRRTMEILRKYALKKGYRYMITGHELPFGHHPYRLMSGGIIQVRILSLMSEEERMKILKKLPVELPELPGYTSNCLILGPALQRFWERHGYSFEHRRIAALVRYGLLNKEKALKKVQKPEVPQWQWELVKKKLKLEDGF | not soluble
4 | MKVEKEFPLMNFSLRRLPLFILIKTRKQTIEMNLRKKGHGIFFSRFGVFISKKKNHINICTLLLTKHPYTKGFPRQNVVETILFRRNSKTHFGRPATRRRPLGEREVNPSARSLG | soluble
5 | MKYSKEYDEKTVVKINDVKFGEGFTIIAGPCSIESREQIMKVAEFLAEVGIKVLRGGAFKPRTSPYSFQGYGEKALRWMREAADEYGLVTVTEVMDTRHVELVAKYSDILQIGARNSQNFELLKEVGKVENPVLLKRGMGNTIQELLYSAEYIMAQGNENVILCERGIRTFETATRFTLDISAVPVVKELSHLPIIVDPSHPAGRRSLVIPLAKAAYAIGADGIMVEVHPEPEKALSDSQQQLTFDDFLQLLKELEALGWKG | soluble
6 | QVRLVESGGGVVQPGGSLRLSCEGSGFKFGDHGIHWVRQAPGEGLQWLTVISSDGTDERYTDSVKGRFTISRDNSKNTMSLQMNNLRPEDMGLYYCARDGKCGGGRCYSGLLDYWGQGTMVTVSSASFKGPSVFPLAPSSKSTSGGTAALGCLVKDYFPEPVTVSWNSGALTSGVHTFPAVLQSSGLYSLSSVVTVPSSSLGTQTYICNVNHKPSNTKVDKKVEPKSCDKTHTGLEHHHHHH | soluble
7 | MGSDKIHHHHHHMWTPMRDGPPKGMHGGKSERPISPRMKPSGLRIWTGSPRAANSERASDEALSCTHIQTCVARLRDTFPSGTVERGQHGGTTVNLIDGIKGNRFAVFGRAGMDMFADPIGTKSEDATTFRADLGGSSANICAGLVKLGAEAALVTSVSDDAVGRFCVNRLRDYGVETRYVRAVGGEARTSLAVYESRIDDFQNVIYRNGAADFQVTKADMDAVDYSAFSALITAGTVFAAEPSRSATFRAFEHARTAGLPVIFDIDYRPYSWPSPEVASEVLTRAGEASDLIVGNDEEFGFMAGHIDKGLEKARALAAQGRMVIYKMGEAGAITIAEGQEIRTGIYPVTAVKPNGAGDSFMAGLLASIAQGHALSDAVLRGSACASIVVSQPGCANAMPTTAELEAFLASHPGPTV | not soluble
8 | MAHHHHHHMQWKKDDLFEGLRKLPRTPGELFGHRNKLNFILQKRFFIAPDMVELALNRQNGEQFNRCYAKLVMQAVAKFNNTTRSQLKVRVDPRLPKGLQLIQPDDKDTGANLKSKKSEKAASGRLNAFSNTTSGQQRKPQQRQQSRYCSPQSGGVSPRVVMPIDPAERDCLYATYLRARTPQSGTPDYSDMMLQSPSCATDGKTTMFSEDGSSALRSATRRSAGDVHFATPPVFKGFERTLELTPADSPTESLPLHF | not soluble
9 | ASIFGVFDIKTDAVELRKKALELSRLMRHRGPDWSGIYASDNAILAHERLSIVDVNAGAQPLYNQQKTHVLAVNGEIYNHQALRAEYGDRYQFQTGSDCEVILALYQEKGPEFLDDLQGMFAFALYDSEKDAYLIGRDHLGIIPLYMGYDEHGQLYVASEMKALVPVCRTIKEFPAGSYLWSQDGEIRSYYHRDWFDYDAVKDNVTDKNELRQALEDSVKSHLMSDVPYGVLLSGGLDSSIISAITKKYAARRVEDQERSEAWWPQLHSFAVGLPGSPDLKAAQEVANHLGTVHHEIHFTVQEGLDAIRDVIYHIETYDVTTIRASTPMYLMSRKIKAMGIKMVLSGEGSDEVFGGYLYFHKAPNAKELHEETVRKLLALHMYDCARANKAMSAWGVEARVPFLDKKFLDVAMRINPQDKMCGNGKMEKHILRECFEAYLPASVAWRQKEQFSDGVGYSWIDTLKEVAAQQVSDQQLETARFRFPYNTPTSKEAYLYREIFEELFPLPSAAECVPGGPSVACSSAKAIEWDEAFKKMDDPSGRAVGVHQSAYK | soluble
10 | MSLKKETLSDRLNKAMELAGMSQGALAKASGVAQPTIWRLTSGNARGSTKIVEIANALGVNSEWLSTGIGPMKKDGTTPINASPSSNTFKIDILDLEVSAGPGVINREFVEILRSVEYSQDDARHMFDGRKAENIRIINVRGDSMSGTIEPGDLLFVDVSIKNFDGDGIYAFLYDDTAHVKRLQKMKDKLLVISDNKSYSAWDPIERDEMNRVFVFGKVIGSMPQTYRKHGEGHHHHHH | soluble
11 | MSLNAPRIIGVIVPDIVTHFFASILNGIENMAIDNGYFVIITTSHESFEHEKRNIENLVNMRVEGIIACLSQETTDFSHFAALKEINMPLILFDRVCLTDQFSSVIADGAQSAQMATQHLLDNGSKRVAFIGGANHLDIVKRRKHGYLEALRDNRIPIEKELVVCRKIDYEEGQIATETLLSLPQPPDAILAMNDTLAFAAMEVIKRHGLRIPDDIAIIGYTDEQHANYVEPKLSAVSHQTYKMGETACQLLIDQIKGDRTVKQVVIPTHLQIRESSIEGHHHHHH | soluble
12 | MGSDKIHHHHHHAEEKNLSEQWPVVASYQWAGQDSVVVCDLSLLKDTVDLPFSFFLKDFQIIKLDNRDEAMVGENNLCVSENYILVYGSVYELHPCRLFTKKGEFVTNIGAIGQGPGEYRAVYKAEIDEKHNCIYLMPFANSNAIYVYDLAGKPLRSIPLHQPVSKAVFKVDADKRELTVGALPFTGYPFVAWVQDFEGHLLDSVPAARHLSVLPDYSNEVMYGANTEVFDLYISTFFELRPDTLYHYIRSESRLKPRFTLNIGDRKRSITTFYELPQAYVGRLMVEEQVGDGMWETKSPSNFIVDKASLRGTFFRVINDFAGGMPDRLWTPWSLRNKQYIRLVEPGVLKAEIESYLSSTDGRKGKNRKKLQELCESIGEEDNSYVIYAKQKGVQ | not soluble
13 | GGQFIAFLRNITERKRAEALHRMGQDILLALNENEDMKEAIQRVLGLLRSATGVDAVGIRLQDGDDFPYFYQEGFPPDFLQKEDSIVARNKDGGVCRDSCGNVCLECTCGMVISGSTDHANPLFTPGGSAWTNDSFPYLEVPADQDPRTTPRDECIHQGYASIALIPIRAKGRIVGLLQLNDRRKGRFTREGIEALEDIAKNIGEAMLRKQAEEKLVASERFLRMLTNQLPGMVGYWDRD | not soluble
14 | SRVQILKDFVKQHFPATPLLDYALEVEKITTSKKPNLILNVDGFIGVAFVDMLRNCGSFTREEADEYVDIGALNGIFVLGRSMGFIGHYLDQKRLKQGLYRHPWDDISYVLPEHMSM | soluble
15 | MAHHHHHHMNNSSAVATGDNPQLQKPMIYKNRARSIVHRSVRNGSENQLTEQANGTSIRDKIRRLFSSKHDQTIRDMQKTKLTKNKSIQEQEPSERNVDGFLSTDHQSVEWQPVYRETCKIKLPVEEGATKIAMPEEVLDDWVHSQHKISQQLGRRKGGEFVQDNQSLGDHDQGDDLLELGGDCLLGKNASRKSCNLKSTEDQYSKFKYYYNYYLVDEYLESLAASPNKELDATGLDEHGQLYDNVSLNARPIIVSKQRLESGVPYDPSKLLQ | not soluble
16 | MGSDKIHHHHHHASPGPGEIANTQARHIATFFPGRMTGSPAEMLSADYLRQQFTQMGYQSDIRTFNSRFIYTTKDNRKNWHNVTGSTVIAAHEGRVPQQIIIMAHLDTYAPQSDADVDANLGGLTLQGMDDNAAGLGVMLELAARLKDIPTHYGIRFIATSGEEEGKLGAENLLKRMSDAEKKNTLLVINLDNLIVGDKLYFNSGKNTPEAVRTLTRDRALAIARRYGIAANTNPGRNPSYPKGTGCCNDAEVFDKAGISVLSVEATNWNLGKKDGYQQRVKNASFPNGNSWHDVRLDNQQHIDKALPGRIERRSRDVVRIMLPLVKELAKAEKTS | not soluble
17 | MGSDKIHHHHHHMNQKTRLTLILDELKTHPSLSLKDIMQLTGTSRDTARRDIVKLAAHNLAERNYGGISRPNTFNKLDQYLDRDDDLLQTKRALAHTASSYLLNDALLFLDISTTVACLPQYLQSKHPGMIVTNSLDIADQALRHSNFQTRILGGTLDAQQRCVQGADSILALHKFRFTTTVLSCAGLTADGVYYAYESDIALKETLRAQSDRLVLLFDHTKVNVSHNFNLLALSDFDYFVTDQPLPDNLATKIAPDKLIYL | not soluble
18 | MALILTFLGKSGVARTKIAIAAAKLLASQGKRVLLAGLAEPVLPLLLEQTLTPDPQQIAPNLEVVQFQSSVLLERNWEEVKKLEAQYLRTPIIKEVYGQELVVLPGMDSALALNAIREYDASGKYDAIVYDGTGDAFTLRMLGLPESLSWYVRRFRQLFVNSDLGKTIAESPLIQPLISSFFNVNWTADNFAQPTNQVNNFLDKGKEALADPKRVAAFLVTTADPLEVVSVRYLWGSAQQIGLTIGGVIQVSSQTEGDLSAEFTPLSVTVVPDVTKGDWQPLIDALPNFVEQAEQAPKPITIDTHNRQVRLFLPGFDKKQVKLTQYGPEVTVEAGDQRRNIFLPPALSGRPITGAKFQNNYLIISFLEHHHHHH | soluble
19 | MSLAARRALHFVFKVGNRFQTARFYRDVLGMKVLRHEEFEEGCKAACNGPYDGKWSKTMVGFGPEDDHFVAELTYNYGVGDYKLGNDFMGITLASSQAVSNARKLEWPLTEVAEGVFETEAPGGYKFYLQNRSLPQSDPVLKVTLAVSDLQKSLNYWCNLLGMKIYEKDEEKQRALLGYADNQCKLELQGVKGGVDHAAAFGRIAFSCPQKELPDLEDLMKRENQKILTPLVSLDTPGKATVQVVILADPDGHEICFVGDEAFREGHHHHHH | soluble
20 | MSLQGQIDIPLDIVGRWQADQSAYELAKTYYWAKVAHLAEHNDQLAQPTYEGAHLADISEINNAPATARRMLVVSSDLFRAQQTAHAFADLMGLDVELDPRLRERSFGEWEGMTREEICEHYADDYHSWRAHTGGETKHGVESRIHTGRRGAEAVRDIVAKHHDETMPTTLLLVGHGSWIVATVAVLLDMDPDDLNNVGAMRNAFWTRMTPHTDPRNADRPTWKLEEFNQGPAIASFADWENGPESLRAPGMPLWKPIIQEGHHHHHH | not soluble
21 | MDTIWDADLQSAALKAEHHRLKTERLSLGYEGKSVCDALDLAIPHGKFSVIVGPNGCGKSTLLKSLCRLLKPLAGQVLLDGQNIHQLPTKVVAKQLGLLPQSALTPEGIKVVDLVSRGRYPHQGLFRQWSRVDERAVEEAMRATHVHELAQHSVDQLSGGQRQRVWVAMALAQQTPYLLLDEPTTYLDIAHQIELLDLFWRLNRQQGHTLVAVLHDLNQACRYADHLIVLQEGKIVAQGDPHSLVTPALVKQVFGIDCVVMPDPISCTPLIIPYSLKRG | not soluble
22 | RTDTIMVLHIPSSGKATLMSIPRDSYVEIPGYGMDKINASFTYGGAPLLTQTVENATGLRINHYAEIGMGGLANVVDAVGGIEVCPAEPIDDPLAGLNIAAGCQKVDGPTALGYVRTRHTALGDLDRVQRQREFFAALVNKVTS | not soluble
